The target of experiment [1] is T1, mouse IL-2Rγ expressed on cells (MC/9) (mouse) (UniProt P34902).
T1 sequence (looked up): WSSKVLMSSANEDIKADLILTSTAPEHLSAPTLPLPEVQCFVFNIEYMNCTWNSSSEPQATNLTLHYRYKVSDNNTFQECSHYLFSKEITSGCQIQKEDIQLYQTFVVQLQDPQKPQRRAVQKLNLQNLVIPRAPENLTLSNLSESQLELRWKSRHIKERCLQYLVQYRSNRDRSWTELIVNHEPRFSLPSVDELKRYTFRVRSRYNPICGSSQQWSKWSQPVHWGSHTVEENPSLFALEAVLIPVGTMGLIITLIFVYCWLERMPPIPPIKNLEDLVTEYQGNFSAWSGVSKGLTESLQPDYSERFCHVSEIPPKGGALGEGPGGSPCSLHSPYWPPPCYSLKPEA
Nature of the experiment: flow cytometry on MC/9 cells (endogenous mouse IL-2Rg), antibody 10 ug/ml.

In experiment [2] the target is T2, human IL-2Rγ expressed on cells (NK-92, Jurkat) (human) (UniProt P31785).
T2 sequence (looked up): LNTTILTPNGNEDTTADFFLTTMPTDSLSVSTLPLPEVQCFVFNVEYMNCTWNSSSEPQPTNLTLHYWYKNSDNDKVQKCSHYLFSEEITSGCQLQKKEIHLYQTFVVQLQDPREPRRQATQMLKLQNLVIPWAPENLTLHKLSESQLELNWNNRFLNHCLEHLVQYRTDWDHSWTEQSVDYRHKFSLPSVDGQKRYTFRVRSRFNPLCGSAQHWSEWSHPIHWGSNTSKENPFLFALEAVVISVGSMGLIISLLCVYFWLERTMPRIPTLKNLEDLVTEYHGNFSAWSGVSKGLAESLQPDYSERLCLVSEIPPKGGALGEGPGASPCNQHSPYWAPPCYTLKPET
Description: flow cytometry on NK-92 cells (endogenous human IL-2Rg), antibody 10 ug/ml. Background: A flow cytometer gives signals particle by particle.

Experiment [3] has as its target T2, human IL-2Rγ expressed on cells (NK-92, Jurkat) (human). Nature of the experiment: flow cytometry on Jurkat cells (endogenous human IL-2Rg), antibody 10 ug/ml.
Experiment [4] concerns the target Human IL2Rγ extracellular domain expressed with a C-terminal mouse IgG2a Fc tag (human). Description: SPR Biacore 4000, mAb captured by anti-human Fc, 25 C. In general terms: In SPR one partner is held on a chip, and binding of the other changes the refractive index at the surface.
The target of experiment [5] is T3, human IL2Rγ expressed on cells (human) (UniProt P31785).
T3 sequence (looked up): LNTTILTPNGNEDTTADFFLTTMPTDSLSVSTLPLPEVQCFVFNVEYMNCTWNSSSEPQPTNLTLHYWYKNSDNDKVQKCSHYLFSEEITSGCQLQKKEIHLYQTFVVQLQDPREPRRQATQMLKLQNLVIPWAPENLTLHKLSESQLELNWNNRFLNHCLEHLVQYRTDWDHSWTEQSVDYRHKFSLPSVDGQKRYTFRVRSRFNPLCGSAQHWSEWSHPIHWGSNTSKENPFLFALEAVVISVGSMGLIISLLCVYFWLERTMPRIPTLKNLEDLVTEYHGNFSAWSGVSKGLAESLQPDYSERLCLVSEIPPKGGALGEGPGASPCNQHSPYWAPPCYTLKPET
Nature of the experiment: cell-based or functional assay.

The results in this text go back to patent US20230279131A1.

B1: H4H12857P (antibody, human IgG4 S228P, kappa, V domains shown)
VH: EVQLVESGGGVVRPGGSLRLSCAASGFTFDDFDMSWVRQGPGKGLEWVSGINWHGSSTGYADSVKGRFTISRDNAKNSLYLQMSSLRAEDTALYHCVRGGTIVGATTPLDYWGQGTLVTVSS
VL: DIQMTQSPSSLSASVGDRVTMTCRASRTISSYLSWYQQKSGKVPNLLIFGASSLQSGVPSRFSASGSGTDFTLIISSLQPEDFATYYCQQSYSSPLTFGGGTKVEIKR
With B1, the Binding Ratio (Sample over unstained MFIs) in experiment [1] was found to be 1; in experiment [2], 37; in experiment [3], 1. In addition, the Raw MFI in experiment [1] came out at 198 MFI; in experiment [2], 5490 MFI; in experiment [3], 103 MFI.

B2: H4H12899P (antibody, human IgG4 S228P, kappa, V domains shown)
VH: QVQLVESGGDLVKPGGSLRLSCATSGFTFSDFYMTWIRQAPGKGLEWISYISNSGSIVKYADSVKGRFTISRDNAKNSLYLQMNSLRAEDTAIYYCARFYGDRWGQGTLVTVSS
VL: DIQLTQSPSFLSASVGDRVTITCWASQGISTFLAWYQQKPGKAPKLLIYAASTLQSGVPSRFSGSGSGTDFTLTISSLQPEDFATYHCQQLNNYPWTFGQGTKVEIKR
Take B2: the 100 nM Ag Bound in experiment [4] worked out at 1 RU. Moreover, the Binding Ratio (Sample over unstained MFIs) was 1 in experiment [1], 18 in experiment [2] and 1 in experiment [3]. The Raw MFI in experiment [1] is 167 MFI; in experiment [2], 2670 MFI; in experiment [3] it was 114 MFI.

B3: H4H12874P (antibody, human IgG4 S228P, kappa, V domains shown)
VH: QVQLVESGGGVVQPGRSLRLSCAASGFNFRNFGMHWVRQAPGKGLEWVAGILYDGSSKYYADSVKDRFTISRDNSKNTLFLQMNSLRAEDTAMYYCAKEEDTAMVPFDSWGPGTLVTVSS
VL: DIQLTQSPSFLSASVGDRVTITCWASQGISSYLAWYQQKPGKAPTLLIYAASTLQSGVPSRFSGSGSGTEFTLTISSLQPEDFASYYCQQLKSYPLTFGGGTKVEIKR
B3: the Binding Ratio (Sample over unstained MFIs) in experiment [1] was 1; in experiment [2], 44; in experiment [3], 6. Besides, the values for the Raw MFI in experiment [1], in experiment [2] and in experiment [3] were 202 MFI, 6580 MFI and 507 MFI, respectively.

B4: H4H12900P (antibody, human IgG4 S228P, kappa, V domains shown)
VH: QVQLVESGGGLVKPGGSLRLSCEASGFTFNDFYMTWIRQAPGKGLEWIAYISKSGDKMRYADSVKGRFSTSRDNAKNSLSLQMNSLRAEDTAVYYCARFYGDIWGQGTLVTVSS
VL: DIQLTQSPSFLSASVGDRVTITCWASQDISSFLVWYQQKPGKAPNLLIYAASALQSGVPSRFSGSGSGTEFTLTISSLQPEDFASYYCEQLNNYPWTFGQGTKVEIKR
In turn, B4 registered a 100 nM Ag Bound in experiment [4] of 4 RU. Moreover, the Binding Ratio (Sample over unstained MFIs) in experiment [1] was determined as 1; in experiment [2] it was 28; in experiment [3] it was 1. Besides, the results for the Raw MFI in experiment [1], in experiment [2] and in experiment [3] were 128 MFI, 4200 MFI and 110 MFI, respectively.

B5: human IL-7 (ligand, UniProt P13232 26-177, looked up)
chain: DCDIEGKDGKQYESVLMVSIDQLLDSMKEIGSNCLNNEFNFFKRHICDANKEGMFLFRAARKLRQFLKMNSTGDFDLHLLKVSEGTTILLNCTGQVKGRKPAALGEAQPTKSLEENKSLKEQKKLNDLCFLKRLLQEIKTCWNKILMGTKEH
B5: the EC50 [M] of ligand; NK92/hIL7R/STAT3-luc in experiment [5] amounted to 3.9e-11 M.

B6: H4H13541P (antibody, human IgG4 S228P, kappa, V domains shown)
VH: EVQLVESGGGVVRPGGSLRLSCAASGFIFDDYDMSWVRQPPGRGLEWVSGIDWFGGTRGYADSMKGRFTISRDNAKNSLYLQMNSLRVEDTAFYYCARGGAIVGAVTPFDYWGQGTLVTVSS
VL: DIQMTQSPSSLSASVGNRVTLSCRASQSINTYLSWYQQRPGKAPKLLIYAASSLQSGVPSRFSGSGAGTDFTLTISSLQPEDFATYYCQQSYSAPLTFGGGTKVEIKR
With B6, in experiment [2], the Binding Ratio (Sample over unstained MFIs) turned out to be 37 and the Raw MFI came to 7050 MFI.

B7: H4H12863P (antibody, human IgG4 S228P, kappa, V domains shown)
VH: QVQLVESGGGVVQPGRSLRLSCTASGFTFRSYDMYWVRQAPGKGLEWVSVITYDGNNKYYADSVKGRFTISRDNSKNTLFLQMSSLRPEDTAVYYCAKRGLIWVGESFDYWGQGTLVTVSS
VL: DIQMTQSPSTLSASVGDRVTITCRASQSINSWLAWYQQKPGKAPNLLIYKASSLESGVPSRFSGSGSGTEFTLTISSLQPDDFATYYCQQYKSYSWTFGQGTKVEIKR
With B7, the figures for the Binding Ratio (Sample over unstained MFIs) in experiment [1], in experiment [2] and in experiment [3] were 1, 87 and 13, respectively. For the same molecule, the values for the Raw MFI in experiment [1], in experiment [2] and in experiment [3] were 185 MFI, 13000 MFI and 1170 MFI, respectively.

B8: H4H12858P (antibody, human IgG4 S228P, kappa, V domains shown)
VH: EVQLVESGGDLVQPGGSLRLSCTASGFIFRNYAMNWVRQAPGKGLEWLSGILGSNDNTYYVDSVKGRFTISRDNSRNTLYLQMNSLRAEDSAVYYCAKGDAGGFDYWGQGTLVTVSS
VL: DVVMTQSPLSLPVILGQPASISCRSSQSLVSSDGNTYLNWFQQRPGQSPRRLIYKVSNRDSGVPDRFSGSGSGTDFTLKISRVEAEDVGAYYCMQGSYWPPTFGQGTKLEIKR
Turning to B8, the results for the Binding Ratio (Sample over unstained MFIs) in experiment [1], in experiment [2] and in experiment [3] were 1, 2 and 1, respectively. Moreover, the results for the Raw MFI in experiment [1], in experiment [2] and in experiment [3] were 199 MFI, 228 MFI and 99 MFI, respectively.

B9: H4H13538P (antibody, human IgG4 S228P, kappa, V domains shown)
VH: EVQLVESGGGLVQPGGSLGLSCAASGFTFSNYAMSWVRQAPGKGLEWVSAVSGGGGGTYYADSVKGRFTISRDNSKNTVLLQMNSLRAEDTAVYYCARGRTGGLDYWGPGTLVTVSS
VL: DVVMTQSPLSLPVIFGQPASISCRSSQSLVDSDGNTYLNWLQQRPGQSPRRLIYEVSNRDSGVPDRFSGSGSGTDFTLTISRVEAEDVGIYYCMQGTRWPPTFGGGTKVEIKR
In the case of B9, in experiment [2], the Binding Ratio (Sample over unstained MFIs) worked out at 1 and the Raw MFI is 235 MFI.
